“Also recorded” adds a separate entry of the source.
Tests used:
[1] = target: matched and mismatched primer-template duplex; assay: Template affinity equilibrium binding assay; conditions: not shown
Method: An equilibrium binding assay (12) was used to determine relative affinity of polymerases for the mismatched primer-templates used in the kinetics assays. Polymerases were preincubated at 60° C. in 1× Taq buffer with 50 nM ^32P-labeled matched primer-template and 50 nM unlabeled mismatched competitor primer-templates. Reactions were initiated by simultaneous addition of dCTP (200 μM) and trap DNA (XbaI/SalI-restricted sheared salmon sperm DNA, 4.5 mg/ml).

[2] = tested on: primers with 3′ transversion mismatches; assay: Mismatch extension PCR assay; type: biochemical; conditions: G•A, C•C, G•G mismatched primers
Method: (§1) A PCR assay was used to screen and rank clones. Briefly, clones were normalized for activity in PCR with matched primers 3, 4 and activity with mismatched primers 1 and 2 (1 μM each) determined at minimal cycle number (15-25 cycles). Extension capability for different mismatches was determined by the same assay using mismatch primers 2 (C•C mismatch), 5 (A•A mismatch), 6 (G•G mismatch), 7 (G•A mismatch) with matched primer 3 or primer 1 (A•G mismatch) with matched primer 4. Incorporation of unnatural substrates in 50 cycle PCR was carried out using standard conditions and 50 μM […] dNTPs (Promega) or 50 μM FITC-12-dATP (Perkin-Elmer), Rhodamine-5-dUTP (Perkin-Elmer) or Biotin-16-dUTP (Roche) with equivalent amounts of the other 3 dNTPs (all 50 μM). Long PCR was carried out using a two-step cycling protocol as described (22) 94° C. for 2 minutes, followed by 20 cycles of (94° C. 15 sec, 68° C. 30 min) using 5 ng of phage λ DNA (New England Biolabs) template and either primers 9, 10, 11 with primer 12 or primer 13 with primers 10, 14.

[3] = PCR with dATP replaced by FITC-12-dATP; type: biochemical; conditions: 50 cycle PCR, dATP completely replaced
Method: as §1

[4] = tested on: primer-template duplex with matched or mismatched 3′ terminus; assay: Steady-state extension kinetics, gel-based assay; type: biochemical; conditions: incorporated base is dCTP
Method: Kinetic parameters were determined using a gel-based assay essentially as described (16). Primers 15, 16, 17 (3′ base=G, C, A respectively) were ^32P-labeled and annealed to one of template strands 18, 19, 20 (template base=C, G, A respectively) or 21 (template base C different context). Duplex substrates were used at 50 nM final concentration in 1× Taq buffer with various concentrations of enzyme and dNTP. Reactions were carried out at 60° C. for times whereby <20% of primer-template was utilized at the highest concentration of dNTP.
Extension and incorporation kinetics of M1 and M4 for a selection of mismatches were measured using a gel-based steady-state kinetic assay (Goodman) (Tables 1 & 2). M1 and M4 respectively extend a C•C mispair 390 and 75-fold more efficiently than wtTaq. […] The gain in extension efficiency derives predominantly from increased relative Vmax values for the mutant polymerases, while Km for nucleotide substrates remains largely unchanged. For most DNA polymerases the relative efficiency of extending a given mispair (f0ext) is similar to the relative efficiency of forming it (finc) (Goodman 1993, Goodman 1990, Washington 2001). Indeed, M1 and M4 respectively incorporate dCTP opposite template base C 206- and 29-fold more efficiently than wtTaq (Table 2).

[5] = tested on: template containing an abasic site; assay: Translesion replication assay (primer extension), abasic site; type: biochemical; conditions: gel-extension assay, 60° C.
Procedure, shortened: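 A 5′-^32P-labelled 20mer primer was annealed (1:1.5) to 51mer templates bearing an abasic site or a cis-syn thymine dimer, 10 nM in final reactions. Extension ran in 40 mM Tris·HCl pH 8.0, 5 mM MgCl2, 100 μM each dNTP, 0.1 U polymerase at 60 °C for various times. Products were resolved on 20% urea-PAGE and imaged by PhosphorImager.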

[6] = PCR with all four dNTPs replaced by αS dNTPs; type: biochemical; conditions: 50 cycle PCR, 50 μM αS dNTPs
Method: as §1

[7] = tested on: undamaged template; assay: Translesion replication assay, control; type: biochemical; conditions: gel-extension assay, 60° C.
Method: Template primers 22 (undamaged) or 23 (containing a synthetic abasic site) were synthesized by Lofstrand Laboratories (Gaithersburg, Md.). Template primer 24 (containing a single cis-syn thymine dimer), was synthesized as described (34). Primer 25 was ^32P-labeled and annealed to one of the three templates 22, 23, 24 (at a primer template ratio of molar 1:1.5) and extended in 40 mM Tris.HCl at pH 8.0, 5 mM MgCl2, 100 μM of each dNTP, 10 mM DTT, 250 μg/ml BSA, 2.5% glycerol, 10 nM primer-template DNA and 0.1 Unit of polymerase at 60° C. for various times.

[8] = 3′-terminal base pair C · G (template base: 3′ primer base), matched

B1: M1: Taq mutant G84A, D144G, K314R, E520G, F598L, A608V, E742G; SEQ ID NO: 1 (protein)
chain: MRGMLPLFEPKGRVLLVDGHHLAYRTFHALKGLTTSRGEPVQAVYGFAKSLLKALKEDGDAVIVVFDAKAPSFRHEAYGGYKAARAPTPEDFPRQLALIKELVDLLGLARLEVPGYEADDVLASLAKKAEKEGYEVRILTADKGLYQLLSDRIHVLHPEGYLITPAWLWEKYGLRPDQWADYRALTGDESDNLPGVKGIGEKTARKLLEEWGSLEALLKNLDRLKPAIREKILAHMDDLKLSWDLAKVRTDLPLEVDFAKRREPDRERLRAFLERLEFGSLLHEFGLLESPKALEEAPWPPPEGAFVGFVLSRREPMWADLLALAAAAGGRVHRAPEPYKALRDLKEARGLLAKDLSVLALREGLGLPPGDDPMLLAYLLDPSNTTPEGVARRYGGEWTEEAGERAALSERLFANLWGRLEGEERLLWLYREVERPLSAVLAHMEATGVRLDVAYLRALSLEVAEEIARLEAEVFRLAGHPFNLNSRDQLERVLFDELGLPAIGKTEKTGKRSTSAAVLGALREAHPIVEKILQYRELTKLKSTYIDPLPDLIHPRTGRLHTRFNQTATATGRLSSSDPNLQNIPVRTPLGQRIRRAFIAEEGWLLVVLDYSQIELRVLAHLSGDENLIRVFQEGRDIHTETASWMFGVPREAVDPLMRRAAKTINFGVLYGMSAHRLSQELAIPYEEAQAFIERYFQSFPKVRAWIEKTLEEGRRRGYVETLFGRRRYVPDLEARVKSVRGAAERMAFNMPVQGTAADLMKLAMVKLFPRLEEMGARMLLQVHDELVLEAPKERAEAVARLAKEVMEGVYPLAVPLEVEVGIGEDWLSAKE
modifications: Mutant Thermus aquaticus DNA polymerase
dissociation constants for matched and mismatched primer-template duplex [1]: indistinguishable | extension of 3′ transversion mismatches in PCR [2]: greatly increased ability to extend; also recorded: generate amplification products | size of amplification product fully labelled with FITC-12-dATP [3]: 0.4 kb | Vmax ([4]; 3′-terminal base pair A · A (template base: 3′ primer base)): 1.5 % Min^−1 | Km ([4]; 3′-terminal base pair A · A): 40.9 µM | Ratio of fext, fext (mutant polymerase)/fext (wtTaq) ([4]; 3′-terminal base pair A · A): 3.6 | fext, f (mismatched 3′terminus)/f (matched terminus) ([4]; 3′-terminal base pair A · A): 2.4 × 10^−6 | Vmax ([4]; 3′-terminal base pair A · G (template base: 3′ primer base)): 44.6 % Min^−1 | Km ([4]; 3′-terminal base pair A · G): 280 µM | Ratio of fext, fext (mutant polymerase)/fext (wtTaq) ([4]; 3′-terminal base pair A · G): 6.2 | fext, f (mismatched 3′terminus)/f (matched terminus) ([4]; 3′-terminal base pair A · G): 1.3 × 10^−6 | Vmax ([4]; 3′-terminal base pair C · C (template base: 3′ primer base)): 9.2 % Min^−1 | Km ([4]; 3′-terminal base pair C · C): 25.8 µM | Ratio of fext, fext (mutant polymerase)/fext (wtTaq) ([4]; 3′-terminal base pair C · C): 390 | fext, f (mismatched 3′terminus)/f (matched terminus) ([4]; 3′-terminal base pair C · C): 2.3 × 10^−5 | Km [4, 8]: 0.02 µM | Vmax [4, 8]: 308.0 % Min^−1 | Vmax ([4]; 3′-terminal base pair G · A (template base: 3′ primer base)): 2.4 % Min^−1 | Km ([4]; 3′-terminal base pair G · A): 22 µM | Ratio of fext, fext (mutant polymerase)/fext (wtTaq) ([4]; 3′-terminal base pair G · A): 13.3 | fext, f (mismatched 3′terminus)/f (matched terminus) ([4]; 3′-terminal base pair G · A): 7.2 × 10^−6 | Vmax ([4]; 3′-terminal base pair G · G (template base: 3′ primer base)): 29.6 % Min^−1 | Km ([4]; 3′-terminal base pair G · G): 67 µM | Ratio of fext, fext (mutant polymerase)/fext (wtTaq) ([4]; 3′-terminal base pair G · G): 22.5 | fext, f (mismatched 3′terminus)/f (matched terminus) ([4]; 3′-terminal base pair G · G): 2.9 × 10^−5 | abasic site bypass in primer extension [5]: able to extend past the lesion and to the end of the template; also recorded: capable of both insertion opposite the abasic site and lesion bypass | size of PCR products with all four αS dNTPs [6]: up to 2 kbp | primer extension on undamaged template [7]: efficiently and rapidly extended primers to the end of the template
